Patent publication US20210388105A1 (ELPISCIENCE SUZHOU BIOPHARMA, published 2021)

How the values were obtained:
[1] = molecular target: T1, human CD39 (full length, on cells) (human, UniProt P49961 1-510); experiment: FACS, MOLP-8 cells
T1 construct: Recombinant on CHOK1-hCD39 cells or natural on SK-MEL-28, SK-MEL-5 and MOLP-8 cells; the cell line is named under assay; also called hCD39; ENTPD1
T1 sequence: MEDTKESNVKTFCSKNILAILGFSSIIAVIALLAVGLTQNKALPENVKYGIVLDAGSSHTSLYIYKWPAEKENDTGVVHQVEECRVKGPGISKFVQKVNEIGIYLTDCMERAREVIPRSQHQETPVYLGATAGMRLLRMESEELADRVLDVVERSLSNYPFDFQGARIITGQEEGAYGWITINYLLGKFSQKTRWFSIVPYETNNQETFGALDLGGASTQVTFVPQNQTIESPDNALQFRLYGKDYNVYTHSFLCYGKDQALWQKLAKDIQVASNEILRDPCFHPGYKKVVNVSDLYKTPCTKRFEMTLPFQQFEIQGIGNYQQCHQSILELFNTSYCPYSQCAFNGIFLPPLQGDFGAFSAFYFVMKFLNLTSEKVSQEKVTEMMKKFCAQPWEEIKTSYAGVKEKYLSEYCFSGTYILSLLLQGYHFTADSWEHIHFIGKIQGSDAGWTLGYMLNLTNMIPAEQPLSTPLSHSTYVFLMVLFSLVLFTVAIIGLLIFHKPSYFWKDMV
Experimental: Similarly, human CD39 expressing cells SK-MEL-5, SK-MEL-28 or MOLP-8, were incubated with a gradient concentration of anti-CD39 antibodies for 30 minutes at 4° C. Cells were washed 3 times using FACS buffer and next incubated with fluorescence labelled secondary antibody (goat-anti-mouse IgG or goat anti-human IgG) for 30 minutes at 4° C. Cells were washed 3 times and then re-suspended in FACS buffer and analyzed by flow cytometry analysis on BD Celesta. Data plotted and analyzed using GraphPad Prism 8.02.
The binding affinity of the humanized antibodies for c23 was determined by FACS, using similar methods as described in Example 3.2. The c23 humanized antibody clones showing good binding affinity are listed in below Table 19 and Table 20, and also shown in FIGS. 7A, 7B and FIG. 8. EC₅₀ is the concentration of the indicated antibodies to reach 50% of the signal in this assay.

[2] = molecular target: T2, mouse CD39 (full length, on CHOK1-mCD39 cells) (mouse, UniProt P55772 1-510); experiment: FACS on CHO-k1/mCD39 cells, MFI [Continued) E]
T2 construct: whole, on cells
T2 sequence (looked up): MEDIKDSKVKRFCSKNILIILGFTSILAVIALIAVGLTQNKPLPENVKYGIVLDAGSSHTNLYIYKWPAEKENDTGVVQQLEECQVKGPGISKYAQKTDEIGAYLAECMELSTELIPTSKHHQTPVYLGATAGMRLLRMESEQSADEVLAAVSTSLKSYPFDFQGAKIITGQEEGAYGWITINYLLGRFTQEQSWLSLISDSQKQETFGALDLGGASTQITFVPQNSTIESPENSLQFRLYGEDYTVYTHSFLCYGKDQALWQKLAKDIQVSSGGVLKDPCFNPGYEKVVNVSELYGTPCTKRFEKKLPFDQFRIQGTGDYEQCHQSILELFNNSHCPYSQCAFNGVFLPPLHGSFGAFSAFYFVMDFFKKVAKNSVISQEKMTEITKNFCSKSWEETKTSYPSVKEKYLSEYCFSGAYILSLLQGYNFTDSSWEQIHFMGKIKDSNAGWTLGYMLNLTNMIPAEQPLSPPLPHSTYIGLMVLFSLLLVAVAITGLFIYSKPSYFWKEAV

ENTPD3 protein = molecular target: T3, ENTPD3 protein (Homo sapiens (Human), UniProt O75355 44-485); experiment: ELISA on coated ENTPD3 protein, anti-hIgG-HRP, OD450
T3 construct: also called CD39L3; ENTPDase 3
T3 sequence: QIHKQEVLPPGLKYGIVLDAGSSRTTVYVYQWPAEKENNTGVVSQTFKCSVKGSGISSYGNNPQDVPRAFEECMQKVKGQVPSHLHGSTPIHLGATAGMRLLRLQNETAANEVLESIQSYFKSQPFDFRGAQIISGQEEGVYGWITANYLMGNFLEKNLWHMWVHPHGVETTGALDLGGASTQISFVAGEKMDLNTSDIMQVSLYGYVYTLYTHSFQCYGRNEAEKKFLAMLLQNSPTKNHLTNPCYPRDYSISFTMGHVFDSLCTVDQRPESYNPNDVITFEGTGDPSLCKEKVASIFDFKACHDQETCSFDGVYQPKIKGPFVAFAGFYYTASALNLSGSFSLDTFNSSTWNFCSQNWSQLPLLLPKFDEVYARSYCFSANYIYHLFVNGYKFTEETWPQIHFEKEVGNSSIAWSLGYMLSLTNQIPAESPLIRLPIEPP
Experimental: (§1) Binding specificity of the purified humanized antibody hu23.H5L5 against ENTPDase family members was detected by ELISA assay. Briefly, ENTPD1 (i.e. CD39) and ENTPD 2/3/5/6 proteins were coated on 96-well ELISA plates at 4° C. overnight, next day the ELISA plates were washed and blocked using blocking buffer (1% BSA in PBS with 0.05% Tween20) 200 μL/well for 2 hours. Then hu23.H5L5 gradients were duplicated into the wells and stained with anti-hIgG-HRP. After plate washing, the plates were developed with TMB substrate and stopped by 2N HCl. The OD450 were recorded using plate reader and platted by Graphpad Prism.

ENTPD5 protein = molecular target: T4, ENTPD5 protein (Homo sapiens (Human), UniProt O75356 25-428); experiment: ELISA on coated ENTPD5 protein, anti-hIgG-HRP, OD450
T4 construct: also called CD39L4; ENTPDase 5
T4 sequence: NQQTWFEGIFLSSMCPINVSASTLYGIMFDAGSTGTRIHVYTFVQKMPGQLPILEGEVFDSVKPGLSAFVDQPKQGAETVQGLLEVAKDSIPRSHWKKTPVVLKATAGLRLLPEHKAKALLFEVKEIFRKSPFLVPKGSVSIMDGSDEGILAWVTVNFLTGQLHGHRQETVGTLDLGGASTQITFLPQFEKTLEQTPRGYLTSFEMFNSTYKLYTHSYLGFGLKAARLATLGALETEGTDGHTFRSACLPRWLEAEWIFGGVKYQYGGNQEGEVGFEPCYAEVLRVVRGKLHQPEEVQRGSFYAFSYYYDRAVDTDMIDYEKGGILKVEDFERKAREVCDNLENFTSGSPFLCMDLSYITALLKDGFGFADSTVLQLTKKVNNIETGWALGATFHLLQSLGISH
Experimental: as §1

EC50 [1]: 0.177 nM | binding result [2]: no binding | binding result (ENTPD3 protein): no binding (tested: about 66 nM) | binding result (ENTPD5 protein): no binding (tested: about 66 nM)
B1: hu23.H5L5 (antibody, V domains shown)
VH: QVQLVQSGAEVKKPGASVKVSCKASGYNLKDTFLHWVRQAPGQGLEWMGRIDPANGNIKYDPKFQGRVTITADTSANTAYMELISLRSEDTAVYYCANSPYYYGSGYRIFDVWGQGTTVTVSS
VL: QIVLTQSPATLSLSPGERATLSCSAFSSVNYMHWYQQKPGQAPRLLIYTTSNLASGIPTRFSGSGSGTSYTLTISSLEPEDFAVYYCQQRSTYPFTFGQGTKLEIK
notes: humanized c23
